Laboratory results reported in patent US20040086528A1 (PROGENICS PHARMACEUTICALS, published 2004).

T1: CCR5 Y184A, HA-tagged (human, UniProt P51681 1-352)
T1 sequence: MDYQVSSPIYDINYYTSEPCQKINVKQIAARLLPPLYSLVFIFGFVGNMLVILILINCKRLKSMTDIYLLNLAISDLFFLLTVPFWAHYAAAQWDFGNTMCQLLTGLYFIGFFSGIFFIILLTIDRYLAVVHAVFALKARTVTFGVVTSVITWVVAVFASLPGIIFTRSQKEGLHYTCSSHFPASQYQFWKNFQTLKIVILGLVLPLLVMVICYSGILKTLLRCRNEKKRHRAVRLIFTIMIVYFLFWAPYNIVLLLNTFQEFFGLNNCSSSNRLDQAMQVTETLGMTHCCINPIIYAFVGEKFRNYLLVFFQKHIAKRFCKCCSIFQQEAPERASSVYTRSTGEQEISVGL

T2: CCR5 R31A, HA-tagged (human, UniProt P51681 1-352)
T2 sequence: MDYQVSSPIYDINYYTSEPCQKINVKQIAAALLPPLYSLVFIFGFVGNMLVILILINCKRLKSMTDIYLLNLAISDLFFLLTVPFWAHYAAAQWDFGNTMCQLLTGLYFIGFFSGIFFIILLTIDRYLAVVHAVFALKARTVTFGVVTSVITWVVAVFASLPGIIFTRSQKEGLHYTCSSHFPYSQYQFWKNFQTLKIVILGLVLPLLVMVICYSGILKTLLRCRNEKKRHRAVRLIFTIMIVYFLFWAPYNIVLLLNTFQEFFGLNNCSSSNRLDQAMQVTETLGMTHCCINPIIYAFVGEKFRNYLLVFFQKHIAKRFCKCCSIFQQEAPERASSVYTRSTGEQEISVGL

T3: CCR5 H181A, HA-tagged (human, UniProt P51681 1-352)
T3 sequence: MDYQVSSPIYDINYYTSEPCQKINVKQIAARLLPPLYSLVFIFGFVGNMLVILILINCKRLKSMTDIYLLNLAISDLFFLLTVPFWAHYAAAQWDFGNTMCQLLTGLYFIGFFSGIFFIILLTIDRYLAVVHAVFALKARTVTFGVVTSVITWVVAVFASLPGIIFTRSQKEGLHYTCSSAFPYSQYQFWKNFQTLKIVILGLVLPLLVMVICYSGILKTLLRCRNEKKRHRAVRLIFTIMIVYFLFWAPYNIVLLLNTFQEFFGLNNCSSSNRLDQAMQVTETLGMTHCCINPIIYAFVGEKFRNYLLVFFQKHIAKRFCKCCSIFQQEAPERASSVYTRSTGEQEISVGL

T4: CCR5 E18A, HA-tagged (human, UniProt P51681 1-352)
T4 sequence (looked up): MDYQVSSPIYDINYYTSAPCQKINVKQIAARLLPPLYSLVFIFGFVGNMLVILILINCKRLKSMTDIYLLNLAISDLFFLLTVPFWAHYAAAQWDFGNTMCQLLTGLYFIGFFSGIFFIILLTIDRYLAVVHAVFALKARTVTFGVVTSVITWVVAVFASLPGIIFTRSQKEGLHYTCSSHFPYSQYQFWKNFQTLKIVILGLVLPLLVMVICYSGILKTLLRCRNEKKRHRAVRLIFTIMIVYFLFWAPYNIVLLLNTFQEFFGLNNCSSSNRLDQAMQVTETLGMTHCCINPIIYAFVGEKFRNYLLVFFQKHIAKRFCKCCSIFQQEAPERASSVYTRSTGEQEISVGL

T5: CCR5 R274A/D276A, HA-tagged (human, UniProt P51681 1-352)
T5 sequence: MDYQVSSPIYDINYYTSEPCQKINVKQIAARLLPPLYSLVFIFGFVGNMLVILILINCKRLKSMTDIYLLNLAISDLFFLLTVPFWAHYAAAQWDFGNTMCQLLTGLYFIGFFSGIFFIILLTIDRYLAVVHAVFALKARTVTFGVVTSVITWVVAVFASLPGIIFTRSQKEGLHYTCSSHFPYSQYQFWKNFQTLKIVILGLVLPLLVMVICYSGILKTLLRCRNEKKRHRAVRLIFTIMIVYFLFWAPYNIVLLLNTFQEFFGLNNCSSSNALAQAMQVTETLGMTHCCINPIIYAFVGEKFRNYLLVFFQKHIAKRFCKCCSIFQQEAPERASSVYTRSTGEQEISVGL

T6: CCR5 K22A, HA-tagged (human, UniProt P51681 1-352)
T6 sequence: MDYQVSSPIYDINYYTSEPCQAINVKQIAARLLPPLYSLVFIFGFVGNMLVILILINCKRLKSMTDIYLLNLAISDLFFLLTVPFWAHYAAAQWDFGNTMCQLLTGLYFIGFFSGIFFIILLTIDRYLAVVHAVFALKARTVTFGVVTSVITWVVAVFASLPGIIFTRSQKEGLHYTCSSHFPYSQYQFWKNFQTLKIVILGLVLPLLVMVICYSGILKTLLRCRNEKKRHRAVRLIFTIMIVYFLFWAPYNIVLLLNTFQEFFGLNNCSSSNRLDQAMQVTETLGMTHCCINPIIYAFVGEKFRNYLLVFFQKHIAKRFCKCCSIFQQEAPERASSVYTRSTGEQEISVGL

T7: CCR5 Q93A, HA-tagged (human, UniProt P51681 1-352)
T7 sequence: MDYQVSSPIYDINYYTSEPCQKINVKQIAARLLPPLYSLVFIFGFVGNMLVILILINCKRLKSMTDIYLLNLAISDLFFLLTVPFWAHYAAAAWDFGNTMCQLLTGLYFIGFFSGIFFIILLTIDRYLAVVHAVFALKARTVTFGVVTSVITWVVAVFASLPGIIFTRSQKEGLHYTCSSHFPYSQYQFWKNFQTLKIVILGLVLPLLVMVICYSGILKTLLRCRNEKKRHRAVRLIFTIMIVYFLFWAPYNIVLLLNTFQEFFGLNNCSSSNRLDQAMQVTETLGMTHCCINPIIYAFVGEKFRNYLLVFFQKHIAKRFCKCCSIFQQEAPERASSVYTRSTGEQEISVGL


Tests used:
Test in all cases: cell-based or functional assay
CCR5 Y184A, HA-tagged = molecular target: T1, CCR5 Y184A, HA-tagged
CCR5 R31A, HA-tagged = molecular target: T2, CCR5 R31A, HA-tagged
CCR5 H181A, HA-tagged = molecular target: T3, CCR5 H181A, HA-tagged
CCR5 E18A, HA-tagged = molecular target: T4, CCR5 E18A, HA-tagged
[1] = molecular target: T5, CCR5 R274A/D276A, HA-tagged
CCR5 K22A, HA-tagged = molecular target: T6, CCR5 K22A, HA-tagged
CCR5 Q93A, HA-tagged = molecular target: T7, CCR5 Q93A, HA-tagged

Binder	relative % inhibition of NLluc/JR-FL entry into U87MG-CD4 cells by 2 µg/ml chemokine (wild-type = 100) (CCR5 Y184A, HA-tagged)	relative % inhibition of NLluc/JR-FL entry into U87MG-CD4 cells by 2 µg/ml chemokine (wild-type = 100) (CCR5 R31A, HA-tagged)	relative % inhibition of NLluc/JR-FL entry into U87MG-CD4 cells by 2 µg/ml chemokine (wild-type = 100) (CCR5 H181A, HA-tagged)	relative % inhibition of NLluc/JR-FL entry into U87MG-CD4 cells by 2 µg/ml chemokine (wild-type = 100) (CCR5 E18A, HA-tagged)	relative % inhibition of NLluc/JR-FL entry into U87MG-CD4 cells by 2 µg/ml chemokine (wild-type = 100) [1]	relative % inhibition of NLluc/JR-FL entry into U87MG-CD4 cells by 2 µg/ml chemokine (wild-type = 100) (CCR5 K22A, HA-tagged)	relative % inhibition of NLluc/JR-FL entry into U87MG-CD4 cells by 2 µg/ml chemokine (wild-type = 100) (CCR5 Q93A, HA-tagged)
macrophage inflammatory protein (MIP)-1β, recombinant human (ligand, UniProt P13236 24-92, looked up) APMGSDPPTACCFSYTARKLPRNFVVDYYETSSLCSQPAVVFQTKRSKQVCADPSESWVQEYVYDLELN	68%	2%	53%	100%	36%	12%	97%
RANTES, recombinant human (ligand) SPYSSDTTPCCFAYIARPLPRAHIKEYFYTSGKCSNPAVVFVTRKNRQVCANPEKKWVREYINSLEMS	36%	-16%	39%	62%	33%	-11%	114%
